Source: patent US20040258656, “High affinity TGFbeta nucleic acid ligands and inhibitors” (published 2004)
Numbering of substitutions follows the chain as printed.

T1: TGFβ2 (transforming growth factor beta 2) (Homo sapiens, UniProt P61812 SEQ:1-112)
T1 sequence: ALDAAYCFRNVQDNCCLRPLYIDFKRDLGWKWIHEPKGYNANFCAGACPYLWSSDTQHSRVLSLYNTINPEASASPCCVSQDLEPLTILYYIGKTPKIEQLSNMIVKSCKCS

B1: 8.40 (ssRNA)
RNA: GGGAGGACGAUGCGGCCCAUUAGUCCUCAUUAGUCCCCUGUGCCCCAGACGACUCGCCCGA
modifications: 2'-F C and U; 2'-OH A and G
B2: 8.20 (ssRNA)
RNA: GGGAGGACGAUGCGGUCUCAACGAAGAACAUCGUUGGAUACUGUUUGUCCCGCCCCAGACGACUCGCCCGA
modifications: 2'-F C and U; 2'-OH A and G
B3: 8.23 (ssRNA)
RNA: GGGAGGACGAUGCGGAGACAUCUUUGUCUCGAUUAGUCAUGUUCCUUACCUGCCCCAGACGACUCGCCCGA
modifications: 2'-F C and U; 2'-OH A and G
B4: 8.2 (ssRNA)
RNA: GGGAGGACGAUGCGGAAGUAACGUUUAAGUAAAAUUCGUUCUCUCGGUAUUUGGCCAGACGACUCGCCCGA
modifications: 2'-F C and U; 2'-OH A and G
B5: 8.9 (ssRNA)
RNA: B4 RNA with U26G
modifications: 2'-F C and U; 2'-OH A and G
B6: 8.3 (ssRNA)
RNA: B4 RNA with U26G, U48C
modifications: 2'-F C and U; 2'-OH A and G
B7: 8.18 (ssRNA)
RNA: GGGAGGACGAUGCGGUCUACCCUUUAGCAGUAUUUGUUUCCAUCGUUGUUUGCCCCAGACGACUCGCCCGG
modifications: 2'-F C and U; 2'-OH A and G
B8: 8.6 (ssRNA)
RNA: GGGAGGACGAUGCGGAAACCAAAAGACCACAUCUCCAUACUCACGCUCUGCCCCAGACGACUCGCCCGA
modifications: 2'-F C and U; 2'-OH A and G
B9: 8.35 (ssRNA)
RNA: GGGAGGACGAUGCGGAUCCUAUCCUCUGAAUAUCAUUAAAUCAUCUUCUCCGCCCCAGACGACUCGCCCGA
modifications: 2'-F C and U; 2'-OH A and G
B10: 8.12 (ssRNA)
RNA: GGGAGGACGAUGCGGUCCAUCAACAAUCUUAUCAUUAUGUUUUUCCUUCCCGCCCCAGACGACUCGCCCGA
modifications: 2'-F C and U; 2'-OH A and G
B11: 8.48 (ssRNA)
RNA: GGGAGGACGAUGCGGAAGUAACGUUGAAGUAAAAUUCGUUCUCUCGGUAUUGGCCAGACGACUCGCCCGA
modifications: 2'-F C and U; 2'-OH A and G
B12: 8.5 (ssRNA)
RNA: GGGAGGACGAUGCGGUCCUAACCAUCACAAUCUCAAUUCUUAUAUUUUCCCGCCCCAGACGACUCGCCCGA
modifications: 2'-F C and U; 2'-OH A and G
B13: 8.8 (ssRNA)
RNA: GGGAGGACGAUGCGGAUAGAUCGGUCCGAUAAGUCUUUCAUCUUUACCUGGCCCCCAGACGACUCGCCCGA
modifications: 2'-F C and U; 2'-OH A and G
B14: 8.28 (ssRNA)
RNA: GGGAGGACGAUGCGGAUGAGACCUAAUCAUCGAUCCGCUAUCUAAAACCUCACCCCAGACGACUCGCCCGA
modifications: 2'-F C and U; 2'-OH A and G
B15: biased clone 17 (ssRNA)
RNA: GGGAGGACGAUGCGGGGGGACUAUUAGUGAGUCUGUAUAGCACUACCCCCAGACGACUCGCCCGA
modifications: 2'-F C and U
B16: biased clone 4 (ssRNA)
RNA: GGGAGGACGAUGCGGGGAGGGUAUUACAGAGUAUGUAUAGCUGUACUCCCAGACGACUCGCCCGA
modifications: 2'-F C and U
B17: biased clone 28 (ssRNA)
RNA: B16 RNA with G16A, A18G, G20A, G21A, U47C
modifications: 2'-F C and U
B18: biased clone 7 (ssRNA)
RNA: B16 RNA with G17A, A18G, G21U, C27U, A33C, U36C, G43A, U47C
modifications: 2'-F C and U
B19: biased clone 35 (ssRNA)
RNA: B15 RNA with C21G, G27A, U28A, A42U, C43U
modifications: 2'-F C and U
B20: biased clone 21 (ssRNA)
RNA: B16 RNA with G16A, A18G, G20A, G21U, A33C, U47C
modifications: 2'-F C and U
B21: biased clone 11 (ssRNA)
RNA: B16 RNA with G17C, A18G, G20A, G21U, U25C, A45G, U47C, C48G
modifications: 2'-F C and U
B22: biased clone 25 (ssRNA)
RNA: B16 RNA with A18G, G19C, G21U, A33C, C46G, U47C
modifications: 2'-F C and U
B23: biased clone 36 (ssRNA)
RNA: B16 RNA with G21A, C27U, A33C, G43A, U47C
modifications: 2'-F C and U
B24: biased clone 14 (ssRNA)
RNA: B15 RNA with G16C, C21U, G27C, C43G
modifications: 2'-F C and U
B25: biased clone 13 (ssRNA)
RNA: B15 RNA with G16U, G18U, C21A, U28A, A42U
modifications: 2'-F C and U
B26: biased clone 15 (ssRNA)
RNA: B16 RNA with G17U, A18G, G20A, G21A, A28G, A33C, U42C
modifications: 2'-F C and U
B27: biased clone 29 (ssRNA)
RNA: B16 RNA with G20U, G21U, A30C, A33C, G40U, C46G, U47C
modifications: 2'-F C and U
B28: biased clone 22 (ssRNA)
RNA: B16 RNA with G17U, A18G, G20A, G21U, A33C, U47C
modifications: 2'-F C and U
B29: biased clone 10 (ssRNA)
RNA: B16 RNA with A18G, G19C, G20A, G21U, A26U, A33C, C46G, U47C
modifications: 2'-F C and U
B30: biased clone 18 (ssRNA)
RNA: B16 RNA with G17U, A18G, G20A, G21U, A30C, A33C, G40U, U47C
modifications: 2'-F C and U
B31: biased clone 19 (ssRNA)
RNA: B16 RNA with G17C, G21U, A33C, C48G
modifications: 2'-F C and U
B32: biased clone 30 (ssRNA)
RNA: B16 RNA with G16U, G21U, A33C
modifications: 2'-F C and U
B33: biased clone 9 (ssRNA)
RNA: B16 RNA with G16U, G20A, A28G, U42C, U47C
modifications: 2'-F C and U
B34: biased clone 34 (ssRNA)
RNA: B16 RNA with A18U, G21U, C27G, A33C, G43C, U47G
modifications: 2'-F C and U
B35: biased clone 26 (ssRNA)
RNA: B16 RNA with A18U, G21U, G29C, C41G, U47C
modifications: 2'-F C and U
B36: biased clone 2 (ssRNA)
RNA: GGGAGGACGAUGCGGAGGCGUUAUUAGAGAGUCUGUAUAGCUCUAGCCCCAGACGACUCGCCGA
modifications: 2'-F C and U
B37: biased clone 20 (ssRNA)
RNA: GGGAGGACGAUGCGGGGUAGAUAUCACUGAGUCUGUAUAGCAGUGUCCCCAGACGACUCGCCCGA
modifications: 2'-F C and U
B38: NX22356 (ssRNA)
RNA: GGAGGUUAUUACAGAGUCUGUAUAGCUGUACUCC
modifications: 2'-F C and U; 2'-OMe at lowercase a,g of ggagGUUAUUACAGAGUCUGUAUAGCuGUACUCC; 3'-3' dT
B39: NX22357 (ssRNA)
RNA: B38 RNA
modifications: 2'-F C and U; 2'-OMe at lowercase a,g of GGAGgUUaUUaCAGAGUCUGUAUAGCUGUACUCC; 3'-3' dT
B40: NX22427 (ssRNA)
RNA: GGGGUUAUUACAGAGUCUGUAUAGCUGUACCC
modifications: 2'-F C and U; 2'-OMe at lowercase a,g of gg-ggUUAUUaCagagUCUGUAUAgCUgUaC-CC; 3'-3' dT
B41: ChD70-m3 (ssRNA)
RNA: GGGUGCCUUUUGCCUAGGUUGUGAUUUGUAACCUUCUGCCCA
modifications: 2'-OMe at 21, 23-24, 28
B42: ChD70-m18 (ssRNA)
RNA: B41 RNA
modifications: 2'-OMe at 1-3, 16-18, 21, 23-24, 28, 30, 42; 3'-3' U cap
B43: ChD70-m16 (ssRNA)
RNA: B41 RNA
modifications: 2'-OMe at 21, 23-24, 28, 42
B44: ChD70-m14 (ssRNA)
RNA: B41 RNA
modifications: 2'-OMe at 21, 23-24, 28, 31
B45: ChD70-m10 (ssRNA)
RNA: B41 RNA
modifications: 2'-OMe at 16, 21, 23-24, 28
B46: ChD70-m5 (ssRNA)
RNA: B41 RNA
modifications: 2'-OMe at 1, 21, 23-24, 28
B47: ChD70-m6 (ssRNA)
RNA: B41 RNA
modifications: 2'-OMe at 2, 21, 23-24, 28
B48: ChD70-m11 (ssRNA)
RNA: B41 RNA
modifications: 2'-OMe at 17, 21, 23-24, 28
B49: ChD70-m7 (ssRNA)
RNA: B41 RNA
modifications: 2'-OMe at 3, 21, 23-24, 28
B50: ChD70-m12 (ssRNA)
RNA: B41 RNA
modifications: 2'-OMe at 18, 21, 23-24, 28
B51: ChD70-m15 (ssRNA)
RNA: B41 RNA
modifications: 2'-OMe at 21, 23-24, 28, 38

These binders were tested against T1, TGFβ2 (transforming growth factor beta …) (assay: filter). Details: chain copies: 2 (homodimer, stated).
B1: no binding. B2: no binding. B3: no binding. B4: binds. B5: binds. B6: binds. B7: no binding. B8: no binding. B9: no binding. B10: no binding. B11: binds. B12: no binding. B13: no binding. B14: no binding.

The binders below were run against T1, TGFβ2 (transforming growth factor beta …) (assay: filter). Details: chain copies: 2 (inferred, homodimer).
With B15 the binding signal was 0.8 x Kd of 21a-21. With B16 the binding signal was 1.4 x Kd of 21a-21. In the case of B17, the binding signal is reported as 1 x Kd of 21a-21. B18 was tested, and the binding signal was 0.3 x Kd of 21a-21. For B19, the binding signal was 0.8 x Kd of 21a-21. In the case of B20, the binding signal is reported as 0.7 x Kd of 21a-21. With B21 the binding signal was 0.4 x Kd of 21a-21. B22 was tested, and the binding signal was 1 x Kd of 21a-21. B23 was tested, and the binding signal was 1.9 x Kd of 21a-21. B24 was tested, and the binding signal was 0.4 x Kd of 21a-21. For B25, the binding signal was 0.2 x Kd of 21a-21. B26 was tested, and the binding signal was 0.4 x Kd of 21a-21. B27 was tested, and the binding signal was 1 x Kd of 21a-21. For B28, the binding signal was 1.1 x Kd of 21a-21. In the case of B29, the binding signal is reported as 0.3 x Kd of 21a-21. For B30, the binding signal was 1 x Kd of 21a-21. In the case of B31, the binding signal is reported as 1 x Kd of 21a-21. In the case of B32, the binding signal is reported as 2.4 x Kd of 21a-21. B33 was tested, and the binding signal was 0.3 x Kd of 21a-21. For B34, the binding signal was 1.7 x Kd of 21a-21. In the case of B35, the binding signal is reported as 3.1 x Kd of 21a-21. With B36 the binding signal was 0.6 x Kd of 21a-21. In the case of B37, the binding signal is reported as 5.7 x Kd of 21a-21.

Molecular target: T1, TGFβ2 (transforming growth factor beta …)
Assay: filter
Details: chain copies: 2 (inferred, homodimer)
Remark: another data set of the same source
In the case of B38, the binding signal is reported as 1 x Kd of NX22284. For B39, the binding signal was 2 x Kd of NX22284. With B40 the binding signal was 0.3 x Kd of NX22284.

The binders below were run against TGFβ1 (transforming growth factor beta 1) (Homo sapiens, UniProt P01137 SEQ:1-112) (assay: CD70 parent +++). Details: chain copies: 2 (homodimer, inferred).
TGFβ1 (transforming growth factor beta 1), sequence (P01137 279-390): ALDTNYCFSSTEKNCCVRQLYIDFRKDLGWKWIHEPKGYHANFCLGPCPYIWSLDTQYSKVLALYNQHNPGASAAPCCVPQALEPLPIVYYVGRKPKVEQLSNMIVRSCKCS
B41: binds. B42: binds. B43: binds. B44: binds. B45: binds. B46: binds. B47: binds. B48: binds. B49: binds. B50: binds. B51: binds.
